The values that follow come from the Immune Epitope Database (IEDB).

A value given as a limit tells only on which side of the number the result lay.

In one assay the target is HLA-A*68:01. In words: IEDB peptide-MHC binding, purified MHC/competitive/radioactivity; filed as Kd, often an IC50 or EC50 that approximates it; ≥ and ≤ were set here for values at or beyond the usual limits of such assays. The note with it: source organism: Vaccinia virus WR.
Assay [1] addresses HLA-A*11:01. The assay is described as above. To be noted: source organism: Vaccinia virus WR.
The target of another assay is HLA-A*31:01. The assay is described as above. To be noted: source organism: Vaccinia virus WR.
In another assay the target is HLA-A*33:01. The description is as above. The note with it: source organism: Vaccinia virus WR.
Another assay concerns the target HLA-A*24:02. In words: IEDB peptide-MHC binding, purified MHC/competitive/fluorescence; ≥ and ≤ were set here for values at or beyond the usual limits of such assays.
In assay [2] the target is HLA-A*03:01. The assay is described as above.
The target in the next assay is HLA-A*02:01. Described as above.
Another assay addresses HLA-B*08:01. Described as above.
Assay [3] addresses HLA-B*15:01. The description is as above.
Assay [4] has as its target HLA-A*01:01. The assay can be described thus: IEDB peptide-MHC binding, purified MHC/competitive/fluorescence; filed as Kd, often an IC50 or EC50 that approximates it; ≥ and ≤ were set here for values at or beyond the usual limits of such assays.
For another assay, the target named is HLA-A*23:01. In words: IEDB peptide-MHC binding, purified MHC/direct/fluorescence; filed as Kd, often an IC50 or EC50 that approximates it; ≥ and ≤ were set here for values at or beyond the usual limits of such assays.
Assay [5] deals with HLA-A*11:01. The assay can be described thus: IEDB peptide-MHC binding, purified MHC/competitive/fluorescence; ≥ and ≤ were set here for values at or beyond the usual limits of such assays.
For assay [6], the target named is HLA-B*58:01. In words: IEDB peptide-MHC binding, purified MHC/competitive/fluorescence; filed as Kd, often an IC50 or EC50 that approximates it; ≥ and ≤ were set here for values at or beyond the usual limits of such assays. The note with it: source organism: Escherichia coli 536.
A further assay has as its target HLA-C*05:01. The assay can be described thus: IEDB peptide-MHC binding, purified MHC/direct/fluorescence; filed as Kd, often an IC50 or EC50 that approximates it; ≥ and ≤ were set here for values at or beyond the usual limits of such assays.
In assay [7] the target is HLA-B*18:01. The assay is described as above. To be noted: source organism: Yellow fever virus 17D.
A further assay addresses HLA-B*45:06. The assay can be described thus: IEDB peptide-MHC binding, purified MHC/competitive/fluorescence; filed as Kd, often an IC50 or EC50 that approximates it; ≥ and ≤ were set here for values at or beyond the usual limits of such assays.
In another assay the target is HLA-B*83:01. Described as above.
Another assay concerns the target HLA-B*15:42. The description is as above.
In assay [8] the target is HLA-A*03:01. The description is as above.
The target in a further assay is HLA-B*35:01. Described as above.
In a further assay the target is HLA-A*24:03. The assay can be described thus: IEDB peptide-MHC binding, purified MHC/direct/fluorescence; filed as Kd, often an IC50 or EC50 that approximates it; ≥ and ≤ were set here for values at or beyond the usual limits of such assays. To be noted: source organism: Vibrio cholerae.
For another assay, the target named is HLA-A*02:12. The assay is described as above. The note with it: source organism: Dengue virus 2 Thailand/16681/84.
For another assay, the target named is HLA-A*02:11. Described as above. To be noted: source organism: Dengue virus 2 Thailand/16681/84.
Another assay concerns the target HLA-B*07:02. The assay is described as above.
The target of assay [9] is HLA-B*15:01. The description is as above.
Assay [10] has as its target HLA-B*46:01. Described as above. The note with it: source organism: Giardia lamblia ATCC 50803.
Assay [11] has as its target HLA-A*01:01. The description is as above. To be noted: source organism: Homo sapiens.
In a further assay the target is HLA-B*39:01. The assay can be described thus: IEDB peptide-MHC binding, purified MHC/competitive/fluorescence; filed as Kd, often an IC50 or EC50 that approximates it; ≥ and ≤ were set here for values at or beyond the usual limits of such assays. The note with it: source organism: Homo sapiens.
The target of another assay is HLA-A*26:01. Described as above. To be noted: source organism: Homo sapiens.
Another assay concerns the target HLA-B*51:01. The description is as above.
Assay [12] has as its target HLA-B*57:01. The assay is described as above. To be noted: source organism: Homo sapiens.
Assay [13] deals with HLA-B*15:01. The assay is described as above. To be noted: source organism: Homo sapiens.
A further assay addresses HLA-A*69:01. Described as above. The note with it: source organism: Homo sapiens.
In assay [14] the target is HLA-B*18:01. The assay is described as above. The note with it: source organism: Homo sapiens.
The next assay addresses HLA-B*27:03. The assay is described as above. To be noted: source organism: Homo sapiens.
For assay [15], the target named is HLA-B*46:01. The description is as above. To be noted: source organism: Homo sapiens.
Another assay has as its target HLA-B*15:17. The assay can be described thus: IEDB peptide-MHC binding, purified MHC/direct/fluorescence; filed as Kd, often an IC50 or EC50 that approximates it; ≥ and ≤ were set here for values at or beyond the usual limits of such assays. To be noted: source organism: Francisella tularensis subsp. holarctica LVS.
The target of assay [16] is HLA-B*57:01. Described as above. To be noted: source organism: Francisella tularensis subsp. holarctica LVS.
Assay [17] addresses HLA-B*58:01. Described as above. The note with it: source organism: Francisella tularensis subsp. holarctica LVS.
[18] abbreviates: source organism: Vaccinia virus Copenhagen.
Where [19] appears, read: source organism: Zaire ebolavirus.
[20] abbreviates: source organism: Vaccinia virus.
Setting [21] is: source organism: Yellow fever virus.
Setting [22] is: source organism: Vibrio cholerae RC385.
[23] abbreviates: source organism: Yersinia pestis Nepal516.
Setting [24] is: source organism: Giardia lamblia ATCC 50803.
The mark [25] stands for this setting: source organism: Mycobacterium tuberculosis H37Ra.
[26] abbreviates: source organism: Mycobacterium tuberculosis C.

As a reminder, the Kd is the concentration at which binding is half-saturated. A word on the IC50: it is the concentration that inhibits the measured activity by half. A high value points to lower potency. For ALKKLIIDR, the Kd is 6.04 µM with HLA-A*68:01, no less than 56.4 µM with HLA-A*11:01 [1], 0.00601 µM in the assay with HLA-A*31:01 and 1.89 µM with HLA-A*33:01. Further, the IC50 with HLA-A*24:02 (setting [18]) was no less than 3610 µM; in the assay with HLA-A*03:01 [2] (setting [18]), no less than 83.2 µM; in the assay with HLA-A*02:01 (setting [18]) it was no less than 166 µM.
EKVQRQIQV had an IC50 in the assay with HLA-B*08:01 (setting [19]) of no less than 181 µM.
Turning to FINKLNGAM, the IC50 with HLA-B*15:01 [3] (setting [18]) was 27.6 µM; with HLA-B*08:01 (setting [18]) it was no less than 138 µM.
Regarding FTSFFYRY, the Kd with HLA-A*01:01 [4] (source organism: Influenza A virus (A/Fort Monmouth/1/1947-mouse adapted(H1N1))) was found to be 1.28 µM.
Regarding GFLNEDHWF, the Kd in the assay with HLA-A*23:01 (source organism: dengue virus type 2) is 0.0245 µM.
As to GKVFAPKQK, the results for the IC50 in the assay with HLA-A*24:02 (setting [20]), with HLA-A*03:01 [2] (setting [20]) and with HLA-A*11:01 [5] (setting [20]) were 39.5 µM, no less than 155 µM and no less than 119 µM, respectively.
As for HWLKVWFEW, the Kd with HLA-A*23:01 (source organism: Vibrio vulnificus CMCP6) worked out at 0.121 µM.
Sequence IQARPCDRW gave a Kd in the assay with HLA-B*58:01 [6] of 0.19 µM.
For KSDDVEGRF, the Kd in the assay with HLA-C*05:01 (source organism: Campylobacter upsaliensis RM3195) is no more than 0.001 µM.
Take LEDGIYGIF: the Kd is 0.118 µM with HLA-B*18:01 [7], no less than 5 µM in the assay with HLA-B*45:06 (setting [21]), no less than 5 µM in the assay with HLA-B*83:01 (setting [21]) and no less than 5 µM with HLA-B*15:42 (setting [21]).
LIAATAITH registered a Kd in the assay with HLA-A*03:01 [8] (source organism: Rickettsia felis URRWXCal2) of 0.266 µM.
MMYTVSLGK: the Kd with HLA-B*45:06 (setting [22]) is no less than 5 µM; with HLA-A*03:01 [8] (setting [22]), 0.0023 µM; in the assay with HLA-B*83:01 (setting [22]), no less than 5 µM; in the assay with HLA-B*15:42 (setting [22]), no less than 5 µM.
Consider MVASQLARY, for which the values for the Kd in the assay with HLA-A*01:01 [4] (setting [23]), with HLA-B*35:01 (setting [23]) and with HLA-A*03:01 [8] (setting [23]) were 1.23 µM, 0.0009 µM and 0.907 µM, respectively.
In the case of PKETFLQSP, in the assay with HLA-A*03:01 [2] (source organism: Sudan ebolavirus), the IC50 was no less than 174 µM.
With RYQAQQVEW, the Kd was 0.0016 µM with HLA-A*24:03 and 0.0046 µM in the assay with HLA-A*23:01 (source organism: Vibrio cholerae).
Regarding SFASLFLPK, the IC50 with HLA-A*24:02 (setting [19]) is no less than 114 µM; in the assay with HLA-A*03:01 [2] (setting [19]), 0.677 µM; with HLA-A*11:01 [5] (setting [19]) it was 0.0815 µM.
SMVNGVVRL: the Kd with HLA-A*02:12 is 0.013 µM; with HLA-A*02:11 it was no more than 0.001 µM.
Turning to TAKVKNEVN, the IC50 with HLA-B*08:01 (setting [19]) was no less than 365 µM.
With TSADQQSLY, the Kd in the assay with HLA-A*01:01 [4] (source organism: Influenza A virus (A/swine/Quebec/1192/1986(H1))) was 0.021 µM.
In the assay with HLA-A*01:01 [4] (source organism: Salmonella enterica subsp. enterica serovar Typhi), TTITGDSAY had a Kd of 4 µM.
Consider VGHMMVIFR, for which the IC50 with HLA-A*24:02 (setting [19]) was no less than 271 µM; with HLA-A*03:01 [2] (setting [19]) it was no less than 218 µM; with HLA-A*11:01 [5] (setting [19]) it was 0.196 µM; with HLA-B*15:01 [3] (setting [19]) it was no less than 1340 µM; in the assay with HLA-B*08:01 (setting [19]), no less than 185 µM; with HLA-A*02:01 (setting [19]), 3.68 µM.
Consider VLASGPGPF, for which the Kd in the assay with HLA-B*07:02 (setting [24]) was 9.38 µM; with HLA-C*05:01 (setting [24]), no less than 20 µM; in the assay with HLA-B*15:01 [9] (setting [24]) it was 0.0184 µM; with HLA-B*46:01 [10] it was no less than 20 µM.
For the sequence VLSDINAVF, the Kd in the assay with HLA-C*05:01 (setting [25]) stood at 0.009 µM; in the assay with HLA-B*15:01 [9] (setting [26]), 0.679 µM.
Turning to VTDTALAYF, the Kd with HLA-C*05:01 (source organism: Homo sapiens) was 0.005 µM; in the assay with HLA-A*01:01 [11], 0.0009 µM; with HLA-B*39:01 it was no less than 20 µM; with HLA-A*26:01, no less than 20 µM; in the assay with HLA-B*51:01 (source organism: Homo sapiens), no less than 20 µM; with HLA-B*57:01 [12], no less than 20 µM. Also, the Kd in the assay with HLA-B*15:01 [13], in the assay with HLA-A*69:01, with HLA-B*18:01 [14], with HLA-B*27:03 and with HLA-B*46:01 [15] was no less than 20 µM each time.
Regarding YGIAAHWSY, the Kd is 0.0032 µM with HLA-B*15:17, 0.259 µM with HLA-B*57:01 [16], 0.0475 µM with HLA-B*58:01 [17] and no more than 0.0001 µM with HLA-B*35:01 (source organism: Francisella tularensis subsp. tularensis FSC198).
The sequence YKACHNSEL returned a Kd with HLA-C*05:01 (source organism: Pisum sativum) of no less than 20 µM.
YPITGVKSL: the Kd with HLA-B*07:02 (setting [26]) is 0.0739 µM; with HLA-B*51:01 (setting [25]) it was no less than 20 µM; with HLA-B*35:01 (setting [25]) it was 0.0002 µM.
With YQQLREAAT, the IC50 with HLA-B*08:01 (setting [19]) was no less than 183 µM; in the assay with HLA-A*02:01 (setting [19]), 29.7 µM.
